Target: T1, MBP-BZR1 (maltose-binding protein-BRASSINAZOLE-RESISTANT1 fusion) (Arabidopsis thaliana, UniProt Q8S307 1-336)
T1 construct: BRASSINAZOLE-RESISTANT1 (BZR1), Arabidopsis thaliana; full length cDNA without stop codon, recombined into pMAL2CGW (N-MBP); In part of the pull-downs 1 mM H2O2 stood in the buffer, which oxidises BZR1 (mainly at Cys-63); also called recombinant BZR1; source: E. coli, purified (amylose resin); not shown: MBP, N-terminal, kept
T1 sequence (looked up): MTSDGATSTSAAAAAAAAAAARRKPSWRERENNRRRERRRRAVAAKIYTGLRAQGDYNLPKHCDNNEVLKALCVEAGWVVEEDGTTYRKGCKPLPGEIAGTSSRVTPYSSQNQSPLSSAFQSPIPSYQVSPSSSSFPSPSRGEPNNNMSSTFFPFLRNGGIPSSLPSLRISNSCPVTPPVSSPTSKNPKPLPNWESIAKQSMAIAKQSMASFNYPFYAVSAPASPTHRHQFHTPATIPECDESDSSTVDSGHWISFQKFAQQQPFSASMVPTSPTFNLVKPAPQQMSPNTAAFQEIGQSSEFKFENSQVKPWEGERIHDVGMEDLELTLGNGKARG
Test: pull-down; glutathione beads with 1 µg GST fusion incubated with 1 µg MBP or MBP fusion; 20 mM Tris-HCl pH 7.5, 100 mM NaCl, 1 mM EDTA, with or without 1 mM H2O2, 4 °C, 1 h; washed with 300 mM NaCl, 0.1% Nonidet P-40; blots with anti-MBP and anti-GST
Conditions: both partners purified

binding result: binds
B1: GST-TRXh5 (enzyme, Arabidopsis thaliana, UniProt Q39241 1-118, looked up)
chain: MAGEGEVIACHTLEVWNEKVKDANESKKLIVIDFTASWCPPCRFIAPVFAEMAKKFTNVVFFKIDVDELQAVAQEFKVEAMPTFVFMKEGNIIDRVVGAAKDEINEKLMKHGGLVASA
notes: thioredoxin h5 (TRXh5), Arabidopsis thaliana; full length cDNA without stop codon, recombined into pDEST15 (N-GST); also called thioredoxin TRXh5; source: bacteria, purified (glutathione beads); not shown: GST, N-terminal, kept
